How the values were obtained:
human ACKR4-EYFP (human) [1] = molecular target: T1, human ACKR4-EYFP (human) (UniProt Q9NPB9)
T1 sequence: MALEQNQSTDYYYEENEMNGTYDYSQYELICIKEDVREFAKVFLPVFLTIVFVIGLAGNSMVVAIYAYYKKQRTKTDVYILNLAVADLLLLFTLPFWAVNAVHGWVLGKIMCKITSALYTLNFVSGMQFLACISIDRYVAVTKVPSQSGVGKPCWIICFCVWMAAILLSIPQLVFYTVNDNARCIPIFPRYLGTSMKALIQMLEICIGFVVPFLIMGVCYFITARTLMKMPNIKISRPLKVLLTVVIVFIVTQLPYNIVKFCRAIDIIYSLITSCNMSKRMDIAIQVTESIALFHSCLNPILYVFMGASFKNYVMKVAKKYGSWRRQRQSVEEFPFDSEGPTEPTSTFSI

human ACKR4-EYFP (human) [2] = molecular target: T1, human ACKR4-EYFP (human); remark: listed apart in the source

Row | EC50 of GRK2-Nluc recruitment to ACKR4-EYFP (BRET, HeLa cells, dose-response) (human ACKR4-EYFP (human) [1]) [nM] | EC50 of GRK3-Nluc recruitment to ACKR4-EYFP (BRET, HeLa cells, dose-response) (human ACKR4-EYFP (human) [1]) [nM] | EC50 of β-arrestin1-Nluc recruitment to ACKR4-EYFP (BRET, HeLa cells, graded chemokine) (human ACKR4-EYFP (human) [2]) [nM] | EC50 of β-arrestin2-Nluc recruitment to ACKR4-EYFP (BRET, HeLa cells, graded chemokine) (human ACKR4-EYFP (human) [2]) [nM] | Substance
1 | 35 | 42 | 76 | 32 | recombinant human CCL19 (from UniProt Q99731 22-98) (ligand)
2 | 129 | 142 | 240 | 133 | recombinant human CCL21 (from UniProt O00585 24-134) (ligand)
3 | 87 | 147 | 115 | 130 | recombinant human CCL25 (from UniProt O15444 24-150) (ligand)

From PMC7188906
